B1: CLPTM1 (parent)
chain: LGCYAVYSLLYLEHKGWYSWVLSM

Variants of: B1
Assay: protein stability index of a GFP-peptide fusion (GPS, HEK-293T) (PSI 1-6); higher = more stable
Details: c terminus: a fixed tail appended
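Further: lentivirally expressed fusions sorted by FACS into six bins by GFP to DsRed ratio, PSI derived from sequencing read proportions per bin multiplied by bin number.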

Variant	protein stability index
LGCYAVYPLLYLEHKGWYSWVLSM	3.57
LGCYAVYILLYLEHKGWYSWVLSM	3.15
LGCYAVYELLYLEHKGWYSWVLSM	1.27
LGCYAVYKLLYLEHKGWYSWVLSM	3.64
LGCYAVYVLLYLEHKGWYSWVLSM	1.96
LGCYAVYCLLYLEHKGWYSWVLSM	2.96
LGCYAVYWLLYLEHKGWYSWVLSM	1.43
LGCYAVYSLLYLEHKGWYSWVLIM	3.17
LGCYAVYSLLYLEHKGWYSWVLTM	1.72
LGCYAVYSLLYLEHKGWYSWVLMM	3.15
LGCYAVYSLLYLEHKGWYSWVLLM	2.41
LGCYAVYSLLYLEHKGWYSWVLVM	1.82
LGCYAVYSLLYLEFKGWYSWVLSM	3.12
LGCYAVYSLLYLEGKGWYSWVLSM	2.4
LGCYAVYSLLYLEIKGWYSWVLSM	2.44
LGCYAVYSLLYLEWKGWYSWVLSM	3.16
LGCYAVYSLLYLEQKGWYSWVLSM	3.42
LGCYAVYSLLYLEMKGWYSWVLSM	2.53
LGCYAVYSLLYLERKGWYSWVLSM	2.22
LGCYAVYSLLYLEVKGWYSWVLSM	2.52
LGCYAVYSLLYLCHKGWYSWVLSM	2.64
LGCYAVYSLLYLGHKGWYSWVLSM	1.95
LGCYAVYSLLYLMHKGWYSWVLSM	2.58
LGCYAVYSLLYLDHKGWYSWVLSM	2.51

Variant	protein stability index
LGCYAVYSLLYLFHKGWYSWVLSM	3.1
LGCYAVYSLLYLHHKGWYSWVLSM	3.66
LGKYAVYSLLYLEHKGWYSWVLSM	2.74
LGLYAVYSLLYLEHKGWYSWVLSM	3.21
LGPYAVYSLLYLEHKGWYSWVLSM	2.26
LGVYAVYSLLYLEHKGWYSWVLSM	3.36
LGMYAVYSLLYLEHKGWYSWVLSM	3.15
LGYYAVYSLLYLEHKGWYSWVLSM	3.21
LGRYAVYSLLYLEHKGWYSWVLSM	1.63
LGCVAVYSLLYLEHKGWYSWVLSM	3.14
LGCDAVYSLLYLEHKGWYSWVLSM	1.9
LGCIAVYSLLYLEHKGWYSWVLSM	1.89
LGCSAVYSLLYLEHKGWYSWVLSM	3.75
LGCKAVYSLLYLEHKGWYSWVLSM	3.58
LGCHAVYSLLYLEHKGWYSWVLSM	2.69
LGCFAVYSLLYLEHKGWYSWVLSM	2.33
LGCMAVYSLLYLEHKGWYSWVLSM	3.4
LGCWAVYSLLYLEHKGWYSWVLSM	2.19
LGCYWVYSLLYLEHKGWYSWVLSM	4.06
LGCYIVYSLLYLEHKGWYSWVLSM	3.28
LGCYHVYSLLYLEHKGWYSWVLSM	2.82
LGCYMVYSLLYLEHKGWYSWVLSM	2
LGCYLVYSLLYLEHKGWYSWVLSM	4.56
LGCYRVYSLLYLEHKGWYSWVLSM	2.43

Variant	protein stability index
LGCYCVYSLLYLEHKGWYSWVLSM	3.34
LGCYEVYSLLYLEHKGWYSWVLSM	3.12
LGCYTVYSLLYLEHKGWYSWVLSM	2.57
MGCYAVYSLLYLEHKGWYSWVLSM	3.26
SGCYAVYSLLYLEHKGWYSWVLSM	3.4
VGCYAVYSLLYLEHKGWYSWVLSM	2.65
GGCYAVYSLLYLEHKGWYSWVLSM	2.73
WGCYAVYSLLYLEHKGWYSWVLSM	2.96
FGCYAVYSLLYLEHKGWYSWVLSM	2.55
HGCYAVYSLLYLEHKGWYSWVLSM	2.19
IGCYAVYSLLYLEHKGWYSWVLSM	3.58
NGCYAVYSLLYLEHKGWYSWVLSM	3.26
CGCYAVYSLLYLEHKGWYSWVLSM	2.92
EGCYAVYSLLYLEHKGWYSWVLSM	3.05
LGCYAVYSLNYLEHKGWYSWVLSM	3.35
LGCYAVYSLPYLEHKGWYSWVLSM	2.45
LGCYAVYSLAYLEHKGWYSWVLSM	2.39
LGCYAVYSLGYLEHKGWYSWVLSM	3.1
LGCYAVYSLFYLEHKGWYSWVLSM	3.57
LGCYAVYSLMYLEHKGWYSWVLSM	2.82
LGCYAVYSLKYLEHKGWYSWVLSM	3.39
LGCYAVYSLTYLEHKGWYSWVLSM	2.74
LGCYAVYSLRYLEHKGWYSWVLSM	1.94
LLCYAVYSLLYLEHKGWYSWVLSM	3.57

Variant	protein stability index
LVCYAVYSLLYLEHKGWYSWVLSM	2.32
LRCYAVYSLLYLEHKGWYSWVLSM	3.1
LDCYAVYSLLYLEHKGWYSWVLSM	3.19
LMCYAVYSLLYLEHKGWYSWVLSM	3.58
LYCYAVYSLLYLEHKGWYSWVLSM	3.37
LGCYAVYSLLYLEHKGWYSWVLSA	2.39
LGCYAVYSLLYLEHKGWYSWVLSC	4.42
LGCYAVYSLLYLEHKGWYSWVLST	2.61
LGCYAVYSLLYLEHKGWYSWVLSH	3.76
LGCYAVYSLLYLEHKGWYSWVLSQ	3.62
LGCYAVYSLLYLEHKGWYSWVLSK	3.6
LGCYAVYSLLYLEHKGWYSWVLSP	3.83
LGCYAVYSLLYLEHKGWYSWVLSL	2.6
LGCYAVYSLLYLEHKGWYSWILSM	1.96
LGCYAVYSLLYLEHKGWYSWCLSM	4.16
LGCYAVYSLLYLEHKGWYSWDLSM	1.56
LGCYAVYSLLYLEHKGWYSWRLSM	1.99
LGCYAVYSLLYLEHKGWYSWSLSM	3.6
LGCYAVYSLLYLEHKGWYSWALSM	2.45
LGCYAPYSLLYLEHKGWYSWVLSM	2.49
LGCYATYSLLYLEHKGWYSWVLSM	2.61
LGCYAGYSLLYLEHKGWYSWVLSM	2.72
LGCYAAYSLLYLEHKGWYSWVLSM	3.13
LGCYADYSLLYLEHKGWYSWVLSM	3.58

Variant	protein stability index
LGCYAEYSLLYLEHKGWYSWVLSM	2.84
LGCYAMYSLLYLEHKGWYSWVLSM	2.22
LGCYAVYSLLYLEHKGWYSFVLSM	1.72
LGCYAVYSLLYLEHKGWYSKVLSM	2.65
LGCYAVYSLLYLEHKGWYSGVLSM	2.21
LGCYAVYSLLYLEHKGWYSRVLSM	2.84
LGCYAVYSLLYLEHKGWYSIVLSM	3.33
LGCYAVYSLLYLEHKGWYSQVLSM	2.07
LGCYAVYSLLYLEHKGWYSHVLSM	1.87
LGCYAVYSLLYLEHKGWYSEVLSM	3.54
LGCYAVYSLLYLEHKGWYSCVLSM	3.98
LGCYAVYSLLYLEHKGWYWWVLSM	2.66
LGCYAVYSLLYLEHKGWYQWVLSM	3.63
LGCYAVYSLLYLEHKGWYVWVLSM	1.92
LGCYAVYSLLYLEHKGWYRWVLSM	1.76
LGCYAVYSLLYLEHKGWYYWVLSM	2.62
LGCYAVYSLLYLEHKGWYGWVLSM	2.71
LGCYAVYSLLYLEHKGWYPWVLSM	2.93
LGCYAVYSLLYLEHKGWYCWVLSM	3.08
LGCYAVYSLLYLEHKGWYFWVLSM	2.47
LGCYAVYSLLYLEHKGWYNWVLSM	3.88
LGCYAVYSLLFLEHKGWYSWVLSM	3.26
LGCYAVYSLLMLEHKGWYSWVLSM	2.05
LGCYAVYSLLPLEHKGWYSWVLSM	2.2

Variant	protein stability index
LGCYAVYSLLHLEHKGWYSWVLSM	2.09
LGCYAVYSLLGLEHKGWYSWVLSM	4.08
LGCYAVYSLLKLEHKGWYSWVLSM	2.63
LGCYAVYSLLILEHKGWYSWVLSM	3
LGCYAVYSLLYLEHQGWYSWVLSM	1.25
LGCYAVYSLLYLEHIGWYSWVLSM	2.89
LGCYAVYSLLYLEHHGWYSWVLSM	3.75
LGCYAVYSLLYLEHVGWYSWVLSM	2.65
LGCYAVYSLLYLEHCGWYSWVLSM	2.9
LGCYAVYSLLYLEHYGWYSWVLSM	2.57
LGCYAVYSLLYLEHSGWYSWVLSM	2.73
LGCYAVYSLLYLEHKGTYSWVLSM	3.28
LGCYAVYSLLYLEHKGRYSWVLSM	2.16
LGCYAVYSLLYLEHKGDYSWVLSM	2.76
LGCYAVYSLLYLEHKGCYSWVLSM	2.36
LGCYAVYSLLYLEHKGFYSWVLSM	1.55
LGCYAVYSLLYLEHKGKYSWVLSM	3.85
LGCYAVYSLLYLEHKGIYSWVLSM	2.71
LGCYAVYSLLYLEHKGYYSWVLSM	2.38
LGCYAVYSLLYLEHKGPYSWVLSM	2.44
LGCYAVYSLLYLEHKGGYSWVLSM	2.14
LGCYAVYSLLYLEHKGAYSWVLSM	3.3
LGCYAVYSLLYLEHKGWISWVLSM	3.27
LGCYAVYSLLYLEHKGWGSWVLSM	2.21

Variant	protein stability index
LGCYAVYSLLYLEHKGWLSWVLSM	2.48
LGCYAVYSLLYLEHKGWMSWVLSM	2.61
LGCYAVFSLLYLEHKGWYSWVLSM	3.72
LGCYAVMSLLYLEHKGWYSWVLSM	3.54
LGCYAVCSLLYLEHKGWYSWVLSM	3.42
LGCYAVVSLLYLEHKGWYSWVLSM	3.4
LGCYAVNSLLYLEHKGWYSWVLSM	5.04
LGCYAVWSLLYLEHKGWYSWVLSM	3.23
LGCYAVKSLLYLEHKGWYSWVLSM	2.19
LGCYAVDSLLYLEHKGWYSWVLSM	3.78
LGCYAVRSLLYLEHKGWYSWVLSM	2.82
LGCYAVISLLYLEHKGWYSWVLSM	3.09
LGCYAVHSLLYLEHKGWYSWVLSM	2.13
LGCYAVYSLLYLEHKGWYSWVSSM	3.49
LGCYAVYSLLYLEHKGWYSWVMSM	2.11
LGCYAVYSLLYLEHKGWYSWVFSM	3.46
LGCYAVYSLLYLEHKGWYSWVASM	3.33
LGCYAVYSLLYLEHKGWYSWVCSM	4.24
LGCYAVYSLLYLEHKGWYSWVGSM	1.72
LGCYAVYSLLYLEHKGWYSWVRSM	2.45
LGCYAVYSLLYLEHKGWYSWVTSM	1.98
LGCYAVYSLLYLEHKGWYSWVYSM	3.5
LGCYAVYSLLYYEHKGWYSWVLSM	2.43
LGCYAVYSLLYQEHKGWYSWVLSM	3.59

Variant	protein stability index
LGCYAVYSLLYFEHKGWYSWVLSM	3.31
LGCYAVYSLLYEEHKGWYSWVLSM	3.57
LGCYAVYSLLYMEHKGWYSWVLSM	4.09
LGCYAVYSLLYGEHKGWYSWVLSM	3.12
LGCYAVYSLLYSEHKGWYSWVLSM	2.02
LGCYAVYSLLYDEHKGWYSWVLSM	2.74
LGCYAVYSLLYTEHKGWYSWVLSM	2.14
LGCYAVYSTLYLEHKGWYSWVLSM	1.75
LGCYAVYSFLYLEHKGWYSWVLSM	4.07
LGCYAVYSYLYLEHKGWYSWVLSM	2.36
LGCYAVYSPLYLEHKGWYSWVLSM	4.54
LGCYAVYSELYLEHKGWYSWVLSM	2.13
LGCYAVYSKLYLEHKGWYSWVLSM	2.65
LGCYAVYSDLYLEHKGWYSWVLSM	3.48
LGCYAVYSWLYLEHKGWYSWVLSM	2.7
LGCYAVYSQLYLEHKGWYSWVLSM	2.67
LGCYAVYSILYLEHKGWYSWVLSM	2.15
LGCYAVYSHLYLEHKGWYSWVLSM	1.71
LGCYAVYSLLYLEHKMWYSWVLSM	2.67
LGCYAVYSLLYLEHKAWYSWVLSM	4.05

From the supplement of paper PMC10567573
